The values below come from PMC5507773, “Argonaute Utilization for miRNA Silencing Is Determined by Phosphorylation-Dependent Recruitment of LIM-Domain-Containing Proteins” (Cell Reports, 2017).

The experiment addresses T1, purified un-tagged AGO2 (hAGO2) (human, UniProt Q9UKV8 1-859).
T1 construct: AGO2, human, un-tagged; also called un-tagged crystallography grade hAGO2; source: purified, un-tagged, crystallography grade (De and Macrae, 2011)
In words: pull-down; MBP direct binding assay: purified un-tagged hAGO2 with MBP-VO, MBP-LIMD1 or MBP-LIMD1 140-166. The following applies: both partners purified.

T1 sequence (Q9UKV8 whole entry): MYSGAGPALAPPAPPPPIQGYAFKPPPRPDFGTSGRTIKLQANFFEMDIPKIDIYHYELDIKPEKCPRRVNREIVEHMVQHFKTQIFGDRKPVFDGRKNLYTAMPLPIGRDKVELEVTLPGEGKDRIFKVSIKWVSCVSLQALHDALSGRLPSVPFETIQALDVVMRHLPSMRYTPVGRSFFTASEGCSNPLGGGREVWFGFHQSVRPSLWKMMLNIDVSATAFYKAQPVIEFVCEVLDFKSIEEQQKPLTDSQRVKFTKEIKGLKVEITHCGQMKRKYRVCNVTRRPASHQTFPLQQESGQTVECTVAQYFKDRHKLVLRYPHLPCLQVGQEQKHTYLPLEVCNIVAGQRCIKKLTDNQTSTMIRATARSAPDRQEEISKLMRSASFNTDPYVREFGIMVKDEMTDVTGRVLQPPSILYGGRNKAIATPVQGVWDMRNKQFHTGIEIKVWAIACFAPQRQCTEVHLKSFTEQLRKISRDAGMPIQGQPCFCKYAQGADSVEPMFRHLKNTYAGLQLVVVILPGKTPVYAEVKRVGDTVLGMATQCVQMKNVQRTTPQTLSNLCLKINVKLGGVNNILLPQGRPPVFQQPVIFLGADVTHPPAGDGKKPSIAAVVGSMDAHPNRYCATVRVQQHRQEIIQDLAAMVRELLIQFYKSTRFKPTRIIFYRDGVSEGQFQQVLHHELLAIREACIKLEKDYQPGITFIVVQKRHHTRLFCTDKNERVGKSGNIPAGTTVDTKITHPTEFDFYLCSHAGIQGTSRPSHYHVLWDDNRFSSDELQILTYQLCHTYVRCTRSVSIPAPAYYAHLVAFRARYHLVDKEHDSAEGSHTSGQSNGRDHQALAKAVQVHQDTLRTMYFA

B1: maltose binding protein (MBP)-tagged full-length LIMD1 (natural protein)
chain: not shown
notes: LIMD1, full length; also called MBP-LIMD1; MBP-LIMD1 full-length; source: recombinant, purified (details in Supplemental Experimental Procedures)
B1: the binding result is “binds”.

B2: MBP-LIMD1 140–166 (AB motif) (domain or fragment, UniProt Q9UGP4 140-166, looked up)
chain: GTRHGSQDCGSRESLATSEMSAFHQPG
notes: source: recombinant, purified (details in Supplemental Experimental Procedures)
For B2, the binding result is reported as “binds”.
